The target of test [1] is HSP70-GFP (full-length HSP70 fused to GFP) (human) (UniProt P0DMV8). As to the kind of experiment: cell-based or functional assay.
Test [2] has as its target HSP70 (human HSP70; the antigen of the binning, humanization and variant binding assays) (human) (UniProt P0DMV8). In words: BLI, anti-human Fc capture, antigen 100 nM. (In general: In BLI a coated tip is dipped into the sample, and binding shifts an interference pattern.)

Here are results for three molecules from patent publication US20250084155A1.

Chain of HSP70-GFP (full-length HSP70 fused to GFP) (human) (P0DMV8 whole entry, the tested form may be a part): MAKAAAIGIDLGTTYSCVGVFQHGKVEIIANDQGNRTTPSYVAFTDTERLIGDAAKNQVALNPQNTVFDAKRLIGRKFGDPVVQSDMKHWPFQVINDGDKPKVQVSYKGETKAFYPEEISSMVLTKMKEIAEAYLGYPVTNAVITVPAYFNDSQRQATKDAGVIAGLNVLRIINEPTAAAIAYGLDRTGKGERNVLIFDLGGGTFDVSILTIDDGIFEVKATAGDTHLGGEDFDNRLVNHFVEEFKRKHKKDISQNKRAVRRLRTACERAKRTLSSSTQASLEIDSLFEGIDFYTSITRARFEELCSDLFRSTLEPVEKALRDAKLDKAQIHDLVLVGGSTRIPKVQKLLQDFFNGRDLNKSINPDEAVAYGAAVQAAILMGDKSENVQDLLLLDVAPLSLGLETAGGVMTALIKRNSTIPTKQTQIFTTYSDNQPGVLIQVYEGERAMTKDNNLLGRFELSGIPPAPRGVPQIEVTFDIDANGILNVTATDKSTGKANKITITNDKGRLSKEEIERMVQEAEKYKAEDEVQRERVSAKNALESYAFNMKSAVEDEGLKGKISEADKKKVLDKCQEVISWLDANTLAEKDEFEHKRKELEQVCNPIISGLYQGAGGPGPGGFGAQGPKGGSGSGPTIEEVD
Chain of HSP70 (human HSP70; the antigen of the binning, humanization and variant binding assays) (human) (P0DMV8 whole entry, change not shown): as the sequence (P0DMV8 whole entry, the tested form may be a part) above

B1: murine 77A in a murine IgG2a format (antibody, V domains shown)
VH: QIQLVQSGPELKKPGETVKISCKASGYTFTNYGMNWVKQAPGKGLKWMGWINTYTGEPTYADDFKGRFAFSLETSATTAYLQINNLKNEDTATYFCARYDHAMDYWGQGTSVTVSS
VL: DIVMSQSPSSLAVSAGEKVTMSCKSSQSLLNSGTRKNYLAWYQQKPGQSPKLLIYWTSTRESGVPDRFTGSGSGTDFTLTINSVQAEDLAVYYCKQSYTLYTFGGGTKLEIK
As for B1, in test [1], the % live cells GFP positive, DC3.2 cells is 78.3% and the % live cells GFP positive, MH-S cells came out at 66%.

B2: murine 77A in a murine IgG2b format (antibody, V domains shown)
VH: B1 VH
VL: B1 VL
For the molecule B2, in test [1], the % GFP positivity, DC3.2 cells was determined as 4.85% and the % GFP positivity, MH-S cells was determined as 16%.

B3: h77A-1.32 (antibody, V domains shown)
VH: QIQLVQSGAEVKKPGASVKVSCKASGYTFTNYGMNWVRQAPGQGLEWMGWINTYTGEPRYADDFKGRFTFTTDTSTSTAYMELRSLRSDDTAVYFCARYDHDMDYWGQGTLVTVSS
VL: EIVLTQSPDSLAVSLGERATINCKSSQSLLNSGTRKNYLAWYQQKAGQSPKLLIYWTSTRESGVPDRFSGSGSGTDFTLTIDSLQAEDVAVYYCKQSYTLYTFGGGTKVEIK
Turning to B3, in test [2], the % Diss is -80.5%, the X = 610 amounted to 0.0256 nM and the X = 1495 came to 0.0462 nM.
